# Results: patent US20210139548A1 (published 2021)
# *1 amine or outer side, *2 acyl side, *3 side chain or, on linkers, in order; H or OH if unused. Side-chain parts run from the residue outwards. The star is where a group is joined. C18 diacid = O=C(O)CCCCCCCCCCCCCCCCC(=O)*; γGlu = O=C(O)[C@H](CCC(=O)[*:2])N[*:1]; Isovaleryl = CC(C)CC(=O)*; AEEA = NCCOCCOCC(=O)O
# Tests used:
# [1] = target: T1, human neuropeptide Y2 receptor (human, UniProt P49146 1-381); test: radioligand competition (125I-PYY(1-36)), hNPY2R membranes
# T1 construct: whole, on cells; also called hNPY2 receptor; hNPY2-R
# T1 sequence (looked up): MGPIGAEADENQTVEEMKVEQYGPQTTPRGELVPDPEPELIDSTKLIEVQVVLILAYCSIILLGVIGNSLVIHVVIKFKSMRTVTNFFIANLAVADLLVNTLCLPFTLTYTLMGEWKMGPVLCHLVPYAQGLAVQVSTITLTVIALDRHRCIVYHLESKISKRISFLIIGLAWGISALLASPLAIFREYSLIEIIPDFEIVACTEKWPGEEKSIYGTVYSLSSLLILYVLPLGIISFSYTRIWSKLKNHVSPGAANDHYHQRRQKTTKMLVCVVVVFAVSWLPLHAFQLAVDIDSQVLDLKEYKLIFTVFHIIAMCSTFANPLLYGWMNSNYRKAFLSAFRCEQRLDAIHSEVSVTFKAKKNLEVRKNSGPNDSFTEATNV
# In short: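 Commercial human Y2 receptor membranes (0.5 μg protein/well) were incubated with peptide for 2 h at room temperature in 50 mM HEPES, 5 mM MgCl₂, 1 mM CaCl₂, pH 7.4, with 0.2% ovalbumin. Bound radioligand was separated on PEI-soaked GF/C filters and counted by scintillation, and IC₅₀ came from nonlinear sigmoidal regression.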
# [2] = target: T1, human neuropeptide Y2 receptor; test: cell-based or functional assay
# human NPY5 receptor = target: T2, human NPY5 receptor (human, UniProt Q15761 1-445); test: cell-based or functional assay
# T2 sequence (looked up): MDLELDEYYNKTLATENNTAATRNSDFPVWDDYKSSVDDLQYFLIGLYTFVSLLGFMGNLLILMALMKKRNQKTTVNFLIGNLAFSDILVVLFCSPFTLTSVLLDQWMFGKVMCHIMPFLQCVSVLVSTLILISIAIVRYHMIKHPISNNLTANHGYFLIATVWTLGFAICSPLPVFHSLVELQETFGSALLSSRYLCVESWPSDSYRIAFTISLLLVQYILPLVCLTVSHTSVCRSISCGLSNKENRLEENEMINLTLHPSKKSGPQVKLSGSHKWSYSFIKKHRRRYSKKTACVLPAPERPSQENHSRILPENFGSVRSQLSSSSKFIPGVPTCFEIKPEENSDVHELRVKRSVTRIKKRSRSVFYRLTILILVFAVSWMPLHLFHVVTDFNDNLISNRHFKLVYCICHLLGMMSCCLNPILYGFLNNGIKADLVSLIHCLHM
# human NPY1 receptor = target: T3, human NPY1 receptor (human, UniProt P25929 1-384); test: cell-based or functional assay
# T3 sequence (looked up): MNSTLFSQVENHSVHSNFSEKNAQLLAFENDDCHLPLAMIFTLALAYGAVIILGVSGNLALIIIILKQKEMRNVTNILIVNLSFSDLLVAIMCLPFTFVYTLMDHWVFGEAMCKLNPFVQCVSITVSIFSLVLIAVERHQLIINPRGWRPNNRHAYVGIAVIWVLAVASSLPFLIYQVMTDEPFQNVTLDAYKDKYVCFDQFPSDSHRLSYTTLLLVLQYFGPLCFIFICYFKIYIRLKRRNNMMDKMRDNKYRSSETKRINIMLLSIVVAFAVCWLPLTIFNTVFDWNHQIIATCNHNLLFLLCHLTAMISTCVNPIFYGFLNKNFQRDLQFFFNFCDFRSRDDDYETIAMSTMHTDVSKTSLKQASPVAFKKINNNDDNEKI
# human NPY4 receptor = human NPY4 receptor (human, UniProt P50391 1-375); test: cell-based or functional assay
# Sequence of human NPY4 receptor (P50391 whole entry): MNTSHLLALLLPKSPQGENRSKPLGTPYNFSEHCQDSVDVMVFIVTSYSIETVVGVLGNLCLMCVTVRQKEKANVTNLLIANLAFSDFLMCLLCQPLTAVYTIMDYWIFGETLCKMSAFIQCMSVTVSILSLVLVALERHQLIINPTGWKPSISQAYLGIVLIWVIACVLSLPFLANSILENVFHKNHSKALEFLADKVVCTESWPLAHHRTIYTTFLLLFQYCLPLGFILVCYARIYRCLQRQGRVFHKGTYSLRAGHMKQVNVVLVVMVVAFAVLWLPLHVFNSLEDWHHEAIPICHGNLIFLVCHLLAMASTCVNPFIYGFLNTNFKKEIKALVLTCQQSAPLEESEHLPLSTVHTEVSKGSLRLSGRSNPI
Binder,Ki [1] [nM],EC50 (HTRF cAMP Gi assay) [2] [nM],EC50 (HTRF cAMP Gi assay) (human NPY5 receptor) [nM],EC50 (HTRF cAMP Gi assay) (human NPY1 receptor) [nM],EC50 (HTRF cAMP Gi assay) (human NPY4 receptor) [nM]
Isovaleryl-APEK([AEEA-AEEA-γGlu-C18 diacid])PEEEASPEELQRYYVSLRHYYNWLTRQRY-NH2 (SMILES CC(C)CC(=O)N[C@@H](C)C(=O)N1CCC[C@H]1C(=O)N[C@@H](CCC(=O)O)C(=O)N[C@@H](CCCCNC(=O)COCCOCCNC(=O)COCCOCCNC(=O)CC[C@H](NC(=O)CCCCCCCCCCCCCCCCC(=O)O)C(=O)O)C(=O)N1CCC[C@H]1C(=O)N[C@@H](CCC(=O)O)C(=O)N[C@@H](CCC(=O)O)C(=O)N[C@@H](CCC(=O)O)C(=O)N[C@@H](C)C(=O)N[C@@H](CO)C(=O)N1CCC[C@H]1C(=O)N[C@@H](CCC(=O)O)C(=O)N[C@@H](CCC(=O)O)C(=O)N[C@@H](CC(C)C)C(=O)N[C@@H](CCC(N)=O)C(=O)N[C@@H](CCCNC(=N)N)C(=O)N[C@@H](Cc1ccc(O)cc1)C(=O)N[C@@H](Cc1ccc(O)cc1)C(=O)N[C@H](C(=O)N[C@@H](CO)C(=O)N[C@@H](CC(C)C)C(=O)N[C@@H](CCCNC(=N)N)C(=O)N[C@@H](Cc1c[nH]cn1)C(=O)N[C@@H](Cc1ccc(O)cc1)C(=O)N[C@@H](Cc1ccc(O)cc1)C(=O)N[C@@H](CC(N)=O)C(=O)N[C@@H](Cc1c[nH]c2ccccc12)C(=O)N[C@@H](CC(C)C)C(=O)N[C@H](C(=O)N[C@@H](CCCNC(=N)N)C(=O)N[C@@H](CCC(N)=O)C(=O)N[C@@H](CCCNC(=N)N)C(=O)N[C@@H](Cc1ccc(O)cc1)C(N)=O)[C@@H](C)O)C(C)C) [Compound 46],3.3,0.152,> 5000,> 5000,> 5000
Isovaleryl-APEK([AEEA-AEEA-γGlu-C18 diacid])PEEDAEPEELQEYYVSLRHYYNWLTRQRY-NH2 (SMILES CC(C)CC(=O)N[C@@H](C)C(=O)N1CCC[C@H]1C(=O)N[C@@H](CCC(=O)O)C(=O)N[C@@H](CCCCNC(=O)COCCOCCNC(=O)COCCOCCNC(=O)CC[C@H](NC(=O)CCCCCCCCCCCCCCCCC(=O)O)C(=O)O)C(=O)N1CCC[C@H]1C(=O)N[C@@H](CCC(=O)O)C(=O)N[C@@H](CCC(=O)O)C(=O)N[C@@H](CC(=O)O)C(=O)N[C@@H](C)C(=O)N[C@@H](CCC(=O)O)C(=O)N1CCC[C@H]1C(=O)N[C@@H](CCC(=O)O)C(=O)N[C@@H](CCC(=O)O)C(=O)N[C@@H](CC(C)C)C(=O)N[C@@H](CCC(N)=O)C(=O)N[C@@H](CCC(=O)O)C(=O)N[C@@H](Cc1ccc(O)cc1)C(=O)N[C@@H](Cc1ccc(O)cc1)C(=O)N[C@H](C(=O)N[C@@H](CO)C(=O)N[C@@H](CC(C)C)C(=O)N[C@@H](CCCNC(=N)N)C(=O)N[C@@H](Cc1c[nH]cn1)C(=O)N[C@@H](Cc1ccc(O)cc1)C(=O)N[C@@H](Cc1ccc(O)cc1)C(=O)N[C@@H](CC(N)=O)C(=O)N[C@@H](Cc1c[nH]c2ccccc12)C(=O)N[C@@H](CC(C)C)C(=O)N[C@H](C(=O)N[C@@H](CCCNC(=N)N)C(=O)N[C@@H](CCC(N)=O)C(=O)N[C@@H](CCCNC(=N)N)C(=O)N[C@@H](Cc1ccc(O)cc1)C(N)=O)[C@@H](C)O)C(C)C) [Compound 105],6.94,0.284,> 5000,> 5000,> 5000
Isovaleryl-APEK([AEEA-AEEA-γGlu-C18 diacid])PEEDAEPEELQRYYVSLRHYYNWLTRQRY-NH2 (SMILES CC(C)CC(=O)N[C@@H](C)C(=O)N1CCC[C@H]1C(=O)N[C@@H](CCC(=O)O)C(=O)N[C@@H](CCCCNC(=O)COCCOCCNC(=O)COCCOCCNC(=O)CC[C@H](NC(=O)CCCCCCCCCCCCCCCCC(=O)O)C(=O)O)C(=O)N1CCC[C@H]1C(=O)N[C@@H](CCC(=O)O)C(=O)N[C@@H](CCC(=O)O)C(=O)N[C@@H](CC(=O)O)C(=O)N[C@@H](C)C(=O)N[C@@H](CCC(=O)O)C(=O)N1CCC[C@H]1C(=O)N[C@@H](CCC(=O)O)C(=O)N[C@@H](CCC(=O)O)C(=O)N[C@@H](CC(C)C)C(=O)N[C@@H](CCC(N)=O)C(=O)N[C@@H](CCCNC(=N)N)C(=O)N[C@@H](Cc1ccc(O)cc1)C(=O)N[C@@H](Cc1ccc(O)cc1)C(=O)N[C@H](C(=O)N[C@@H](CO)C(=O)N[C@@H](CC(C)C)C(=O)N[C@@H](CCCNC(=N)N)C(=O)N[C@@H](Cc1c[nH]cn1)C(=O)N[C@@H](Cc1ccc(O)cc1)C(=O)N[C@@H](Cc1ccc(O)cc1)C(=O)N[C@@H](CC(N)=O)C(=O)N[C@@H](Cc1c[nH]c2ccccc12)C(=O)N[C@@H](CC(C)C)C(=O)N[C@H](C(=O)N[C@@H](CCCNC(=N)N)C(=O)N[C@@H](CCC(N)=O)C(=O)N[C@@H](CCCNC(=N)N)C(=O)N[C@@H](Cc1ccc(O)cc1)C(N)=O)[C@@H](C)O)C(C)C) [Compound 188],3.09,0.106,> 5000,> 5000,> 5000
Isovaleryl-APEK([AEEA-AEEA-γGlu-C18 diacid])PEEDASEEELQEYYVSLRHYYNWLTRQRY-NH2 (SMILES CC(C)CC(=O)N[C@@H](C)C(=O)N1CCC[C@H]1C(=O)N[C@@H](CCC(=O)O)C(=O)N[C@@H](CCCCNC(=O)COCCOCCNC(=O)COCCOCCNC(=O)CC[C@H](NC(=O)CCCCCCCCCCCCCCCCC(=O)O)C(=O)O)C(=O)N1CCC[C@H]1C(=O)N[C@@H](CCC(=O)O)C(=O)N[C@@H](CCC(=O)O)C(=O)N[C@@H](CC(=O)O)C(=O)N[C@@H](C)C(=O)N[C@@H](CO)C(=O)N[C@@H](CCC(=O)O)C(=O)N[C@@H](CCC(=O)O)C(=O)N[C@@H](CCC(=O)O)C(=O)N[C@@H](CC(C)C)C(=O)N[C@@H](CCC(N)=O)C(=O)N[C@@H](CCC(=O)O)C(=O)N[C@@H](Cc1ccc(O)cc1)C(=O)N[C@@H](Cc1ccc(O)cc1)C(=O)N[C@H](C(=O)N[C@@H](CO)C(=O)N[C@@H](CC(C)C)C(=O)N[C@@H](CCCNC(=N)N)C(=O)N[C@@H](Cc1c[nH]cn1)C(=O)N[C@@H](Cc1ccc(O)cc1)C(=O)N[C@@H](Cc1ccc(O)cc1)C(=O)N[C@@H](CC(N)=O)C(=O)N[C@@H](Cc1c[nH]c2ccccc12)C(=O)N[C@@H](CC(C)C)C(=O)N[C@H](C(=O)N[C@@H](CCCNC(=N)N)C(=O)N[C@@H](CCC(N)=O)C(=O)N[C@@H](CCCNC(=N)N)C(=O)N[C@@H](Cc1ccc(O)cc1)C(N)=O)[C@@H](C)O)C(C)C) [Compound 164],4.33,0.235,> 5000,> 5000,> 5000
Isovaleryl-APEK([AEEA-AEEA-γGlu-C18 diacid])PEEDATPEELQKYYVSLRHYYNWLTRQRY-NH2 [Compound 231],1.96,0.107,> 5000,> 5000,> 5000
